Here are results for one molecule from patent US20020137126A1 (Genentech, published 2002).

Test [1] deals with T1, REK7, endogenous, on rat embryonic (E16) cortical neurons (rat, UniProt P54757 27-1005 at identity 0.97)).
T1 chain: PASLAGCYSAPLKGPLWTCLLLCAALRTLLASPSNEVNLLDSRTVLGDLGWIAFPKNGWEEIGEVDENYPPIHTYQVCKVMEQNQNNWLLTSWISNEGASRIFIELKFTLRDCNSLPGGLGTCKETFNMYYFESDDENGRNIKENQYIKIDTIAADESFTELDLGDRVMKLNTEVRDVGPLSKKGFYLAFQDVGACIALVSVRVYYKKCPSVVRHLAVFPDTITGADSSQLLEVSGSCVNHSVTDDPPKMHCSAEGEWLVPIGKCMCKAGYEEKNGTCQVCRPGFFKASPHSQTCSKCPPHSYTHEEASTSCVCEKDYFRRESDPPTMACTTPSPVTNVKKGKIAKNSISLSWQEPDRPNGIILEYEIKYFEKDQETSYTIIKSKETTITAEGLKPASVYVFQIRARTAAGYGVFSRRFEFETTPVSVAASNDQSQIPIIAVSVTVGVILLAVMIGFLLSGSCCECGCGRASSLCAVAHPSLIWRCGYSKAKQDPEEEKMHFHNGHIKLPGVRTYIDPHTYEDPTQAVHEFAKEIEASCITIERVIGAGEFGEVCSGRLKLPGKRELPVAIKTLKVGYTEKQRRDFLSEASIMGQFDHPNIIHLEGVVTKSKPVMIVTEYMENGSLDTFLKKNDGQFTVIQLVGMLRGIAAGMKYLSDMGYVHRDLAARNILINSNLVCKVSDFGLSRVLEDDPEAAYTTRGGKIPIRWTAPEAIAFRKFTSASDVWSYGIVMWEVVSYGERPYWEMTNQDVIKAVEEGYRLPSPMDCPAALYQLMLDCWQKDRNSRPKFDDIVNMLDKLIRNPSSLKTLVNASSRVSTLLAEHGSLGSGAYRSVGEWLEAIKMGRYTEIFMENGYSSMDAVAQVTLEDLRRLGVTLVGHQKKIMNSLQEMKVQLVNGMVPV
Briefly: cell-based or functional assay.

The target in test [2] is CD4-IgG (human, UniProt P01730 26-205). The experiment in a line: immunoaffinity chromatography of BT20 conditioned medium on CD4-IgG-Protein A precolumn; SDS-PAGE, silver stain. As to the method:
200 ml of BT20 conditioned media, concentrated as described above from 12 liters and frozen, was thawed, centrifuged at 17,000 rpm in a Sorvall SS34 rotor, and filtered through a 0.45 μm filter to clarify the solution. The 200 ml was pumped through a 2.0 ml CD4-IgG—Protein A (CD4-IgG covalently linked to Protein A through IgG moiety) immunoaffinity precolumn and a 1.0 ml REK7-IgG - Protein A (REK7-IgG covalently linked to Protein A through IgG moiety) immunoaffinity column in tandem with a flow rate of 0.5 ml/min. All chromatography was carried out at 4° C. Following one complete passage of the media through both columns, the flow rate was reduced to 0.2 ml/min, and the media was recycled through both columns. Following the loading of the REK7-IgG column, the two column were separated from each other, washed with 10 column volumes of PBS, and then eluted with four separate washes of 100 mM sodium citrate, pH 3.0 (2 ml each for the CD4-IgG column and 1 ml each for the REK7-IgG column). The first two washes were allowed to immediately flow through the column whereas the last two were incubated for 15 minutes before collection. The eluates were brought to pH 7.4 by the addition of 50 mM potassium phosphate, and an aliquot of each was analyzed by sodium dodecycl sulfate (SDS)-polyacrylamide gel electrophoresis (PAGE). […]

B1: soluble AL-1 (purified, secreted form without the GPI membrane anchor) (ligand)
chain: QDPGSKAVADRYAVYWNSSNPRFQRGDYHIDVCINDYLDVFCPHYEDSVPEDKTERYVLYMVNFDGYSACDHTSKGFKRWECNRPHSPNGPLKFSEKFQLFTPFSLGFEFRPGREYFYISSAIPDNGRRSCLKLKVFVRPTNSCMKTIGVHDRVFDVNDKVENSLEPADDTVHESAEPSRGEN
notes: also called purified soluble AL-1; REK7 ligand from BT20 conditioned medium
As to B1, in test [1], the “tyrosine autophosphorylation of REK7 (immunoprecipitation with anti-REK7, anti-phosphotyrosine immunoblot)” value is around 2 fold. Also, in test [2], the binding result is given as “no binding”.
